From patent US20210361750A1, “Anti-Viral Lactoferrin Facemask” (priority 2020, published 2021)

Columns and labels:
[1] = test system: SARS-CoV-2; assay: SARS-CoV-2 cytopathic effect inhibition by lactoferrin at various pH levels in Vero E6 cells; assay type: cell-based, SARS-CoV-2 (strain COV2019 Italy/INM11); details: for average neutralizing titer: lactoferrin 10 mg/mL
[2] = test system: SARS-CoV-2; assay: Cyclodextrin testing: antiviral activity against SARS-CoV-2 in Vero E6 cells (CPE); assay type: cell-based; details: pH 7; lactoferrin alone 10 mg/mL, cyclodextrin alone 10 mg/mL, or lactoferrin 5 mg/mL + cyclodextrin 10 mg/mL
[3] = test system: Vero cells; details: 10 mg/mL lactoferrin, incubated up to 72 hours
[4] = test system: Vero E6 cells; details: control without virus, 10 mg/mL
[5] = test system: SARS-CoV-2; details: patients with SARS-CoV-2, after oral administration; cited from earlier work

B1: lactoferrin (protein, UniProt P02788 20-710, looked up)
Lactotransferrin: GRRRSVQWCAVSQPEATKCFQWQRNMRKVRGPPVSCIKRDSPIQCIQAIAENRADAVTLDGGFIYEAGLAPYKLRPVAAEVYGTERQPRTHYYAVAVVKKGGSFQLNELQGLKSCHTGLRRTAGWNVPIGTLRPFLNWTGPPEPIEAAVARFFSASCVPGADKGQFPNLCRLCAGTGENKCAFSSQEPYFSYSGAFKCLRDGAGDVAFIRESTVFEDLSDEAERDEYELLCPDNTRKPVDKFKDCHLARVPSHAVVARSVNGKEDAIWNLLRQAQEKFGKDKSPKFQLFGSPSGQKDLLFKDSAIGFSRVPPRIDSGLYLGSGYFTAIQNLRKSEEEVAARRARVVWCAVGEQELRKCNQWSGLSEGSVTCSSASTTEDCIALVLKGEADAMSLDGGYVYTAGKCGLVPVLAENYKSQQSSDPDPNCVDRPVEGYLAVAVVRRSDTSLTWNSVKGKKSCHTAVDRTAGWNIPMGLLFNQTGSCKFDEYFSQSCAPGSDPRSNLCALCIGDEQGENKCVPNSNERYYGYTGAFRCLAENAGDVAFVKDVTVLQNTDGNNNEAWAKDLKLADFALLCLDGKRKPVTEARSCHLAMAPNHAVVSRMDKVERLKQVLLHQQAKFGRNGSDCPDKFCLFQSETKNLLFNDNTECLARLHGKTTYEKYLGPQYVAGITNLKKCSTSPLLEACEFLRK
notes: stock solution in water at 10 mg/mL
- inhibitory effect on viral infection in Vero cells ([1]; cells pre-incubated with lactoferrin 0.313-10 mg/mL for one hour): showed an inhibitory effect
- average neutralizing titer ([1]; pH 4): 452
- average neutralizing titer ([1]; pH 7): 40
- lactoferrin concentration of maximum inhibitory effect ([1]; pH 4, 5, and 6): 5 mg/mL
- antiviral efficacy ([1]; pH 7): consistent low efficacy
- inhibitory effect on viral infection ([1]; without the pre-incubation step, any pH): no inhibitory effect
- antiviral activity (cytopathic effect) [2]: did not show antiviral activity
- cellular cytotoxicity [3]: No cellular cytotoxicity
- cytopathic effect on the cells [4]: neither the lactoferrin alone (10 mg/mL) or the cyclodextrin alone (10 mg/mL) had a cytopathic effect
- time to reduced severity and duration of disease [5]: 4 to 5 days
